“And” between values parts separate entries of the source, which are not always exact repeats. Identical values can stand only once. Bridges are numbered along the chain shown (N, C = ends). [ ]: non-standard residue; d: D form. The star is where a group is joined. N3 = N-terminal azide group, clicked with Pra; NMeW = CN[C@@H](Cc1c[nH]c2ccccc12)C(=O)O; Stearoyl = CCCCCCCCCCCCCCCCCC(=O)*; αMeV = CC(C)[C@](C)(N)C(=O)O; αMeS = C[C@](N)(CO)C(=O)O; Pra = C#CC[C@H](N)C(=O)O; βAla = NCCC(=O)O; Sar = CNCC(=O)O
T1: β-catenin (UniProt P35222 134-665, limits assumed, biotinylated in the SPR and plate assays)
T1 sequence (looked up): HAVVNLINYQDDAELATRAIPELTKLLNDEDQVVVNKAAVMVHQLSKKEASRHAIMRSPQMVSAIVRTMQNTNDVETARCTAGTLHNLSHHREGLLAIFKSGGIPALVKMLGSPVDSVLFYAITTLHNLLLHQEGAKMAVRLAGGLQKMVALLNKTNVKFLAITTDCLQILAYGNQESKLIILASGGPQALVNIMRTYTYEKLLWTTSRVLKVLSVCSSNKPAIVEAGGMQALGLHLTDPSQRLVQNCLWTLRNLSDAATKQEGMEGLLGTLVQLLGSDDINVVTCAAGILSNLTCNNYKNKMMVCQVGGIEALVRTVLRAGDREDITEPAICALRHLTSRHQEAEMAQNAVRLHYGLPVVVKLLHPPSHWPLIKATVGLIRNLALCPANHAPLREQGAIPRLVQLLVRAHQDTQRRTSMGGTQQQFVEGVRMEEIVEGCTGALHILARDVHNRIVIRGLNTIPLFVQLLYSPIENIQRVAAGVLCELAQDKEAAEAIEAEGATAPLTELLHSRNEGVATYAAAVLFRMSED


target: T1, β-catenin; assay: cell-based or functional assay

Binder	Wnt Reporter EC50	Proliferation IC50, Wnt dependent cells [µM]
H-MIRMWFLICAWG-OH [SEQ ID NO: 166]	> 30 µM	
KWFLIAFWE (HELM PEPTIDE1{[ac].K.W.F.L.I.A.F.W.E}$PEPTIDE1,PEPTIDE1,2:R3-10:R3$$$V2.0; SMILES CC[C@H](C)[C@@H]1NC(=O)[C@H](CC(C)C)NC(=O)[C@H](Cc2ccccc2)NC(=O)[C@H](Cc2c[nH]c3ccccc23)NC(=O)[C@@H](NC(C)=O)CCCCNC(=O)CC[C@@H](C(=O)O)NC(=O)[C@H](Cc2c[nH]c3ccccc23)NC(=O)[C@H](Cc2ccccc2)NC(=O)[C@H](C)NC1=O) [SEQ ID NO: 200]	≤ 7.5 µM	
KWFLIAFWE (HELM PEPTIDE1{K.W.F.L.I.A.F.W.E}$PEPTIDE1,PEPTIDE1,1:R3-9:R3$$$V2.0; SMILES CC[C@H](C)[C@@H]1NC(=O)[C@H](CC(C)C)NC(=O)[C@H](Cc2ccccc2)NC(=O)[C@H](Cc2c[nH]c3ccccc23)NC(=O)[C@@H](N)CCCCNC(=O)CC[C@@H](C(=O)O)NC(=O)[C@H](Cc2c[nH]c3ccccc23)NC(=O)[C@H](Cc2ccccc2)NC(=O)[C@H](C)NC1=O) [SEQ ID NO: 201]	> 22.5 µM and ≤ 30 µM	
KWFLISAWD (HELM PEPTIDE1{K.W.F.L.I.S.A.W.D}$PEPTIDE1,PEPTIDE1,1:R3-9:R3$$$V2.0; SMILES CC[C@H](C)[C@@H]1NC(=O)[C@H](CC(C)C)NC(=O)[C@H](Cc2ccccc2)NC(=O)[C@H](Cc2c[nH]c3ccccc23)NC(=O)[C@@H](N)CCCCNC(=O)C[C@@H](C(=O)O)NC(=O)[C@H](Cc2c[nH]c3ccccc23)NC(=O)[C@H](C)NC(=O)[C@H](CO)NC1=O) [SEQ ID NO: 202]	> 22.5 µM and ≤ 30 µM	
KWALISAWD (HELM PEPTIDE1{K.W.[Cha].L.I.S.A.W.D}$PEPTIDE1,PEPTIDE1,1:R3-9:R3$$$V2.0; SMILES CC[C@H](C)[C@@H]1NC(=O)[C@H](CC(C)C)NC(=O)[C@H](CC2CCCCC2)NC(=O)[C@H](Cc2c[nH]c3ccccc23)NC(=O)[C@@H](N)CCCCNC(=O)C[C@@H](C(=O)O)NC(=O)[C@H](Cc2c[nH]c3ccccc23)NC(=O)[C@H](C)NC(=O)[C@H](CO)NC1=O) [SEQ ID NO: 203]	> 7.5 µM and ≤ 15 µM	
H-MWFLICAWG-OH [SEQ ID NO: 211]	≤ 7.5 µM	
KWLLISAWD (HELM PEPTIDE1{K.W.L.L.I.S.A.W.D}$PEPTIDE1,PEPTIDE1,1:R3-9:R3$$$V2.0; SMILES CC[C@H](C)[C@@H]1NC(=O)[C@H](CC(C)C)NC(=O)[C@H](CC(C)C)NC(=O)[C@H](Cc2c[nH]c3ccccc23)NC(=O)[C@@H](N)CCCCNC(=O)C[C@@H](C(=O)O)NC(=O)[C@H](Cc2c[nH]c3ccccc23)NC(=O)[C@H](C)NC(=O)[C@H](CO)NC1=O) [SEQ ID NO: 206]	> 15 µM and ≤ 22.5 µM	
H-MAFLISFWG-OH [SEQ ID NO: 210]	≤ 7.5 µM	
Ac-MWILISFWG-OMe [SEQ ID NO: 222]	> 7.5 µM and ≤ 15 µM	
H-MWFLICFW[Sar]-OH [SEQ ID NO: 213]	≤ 7.5 µM	
H-[2Aoc]WFLICFWG-OH [SEQ ID NO: 139]	> 30 µM	
Stearoyl-W[NMeW]E[αMeS]ILDEH[αMeV]QRVWG-OH [SEQ ID NO: 390]	> 7.5 µM and ≤ 15 µM	4.7
DMWFLICFWKG (HELM PEPTIDE1{D.M.W.F.L.I.C.F.W.K.G}$PEPTIDE1,PEPTIDE1,1:R3-10:R3$$$V2.0; SMILES CC[C@H](C)[C@@H]1NC(=O)[C@H](CC(C)C)NC(=O)[C@H](Cc2ccccc2)NC(=O)[C@H](Cc2c[nH]c3ccccc23)NC(=O)[C@H](CCSC)NC(=O)[C@@H](N)CC(=O)NCCCC[C@@H](C(=O)NCC(=O)O)NC(=O)[C@H](Cc2c[nH]c3ccccc23)NC(=O)[C@H](Cc2ccccc2)NC(=O)[C@H](CS)NC1=O) [SEQ ID NO: 177]	> 7.5 µM and ≤ 15 µM	
KWFEISFWG (HELM PEPTIDE1{K.W.F.E.I.S.F.W.G}$PEPTIDE1,PEPTIDE1,1:R3-4:R3$$$V2.0; SMILES CC[C@H](C)[C@H](NC(=O)[C@@H]1CCC(=O)NCCCC[C@H](N)C(=O)N[C@@H](Cc2c[nH]c3ccccc23)C(=O)N[C@@H](Cc2ccccc2)C(=O)N1)C(=O)N[C@@H](CO)C(=O)N[C@@H](Cc1ccccc1)C(=O)N[C@@H](Cc1c[nH]c2ccccc12)C(=O)NCC(=O)O) [SEQ ID NO: 208]	> 7.5 µM and ≤ 15 µM	
DWFLICAWKG (HELM PEPTIDE1{D.W.F.L.I.C.A.W.K.G}$PEPTIDE1,PEPTIDE1,1:R3-9:R3$$$V2.0; SMILES CC[C@H](C)[C@@H]1NC(=O)[C@H](CC(C)C)NC(=O)[C@H](Cc2ccccc2)NC(=O)[C@H](Cc2c[nH]c3ccccc23)NC(=O)[C@@H](N)CC(=O)NCCCC[C@@H](C(=O)NCC(=O)O)NC(=O)[C@H](Cc2c[nH]c3ccccc23)NC(=O)[C@H](C)NC(=O)[C@H](CS)NC1=O) [SEQ ID NO: 178]	≤ 7.5 µM	
KWFLICEWG (HELM PEPTIDE1{K.W.F.L.I.C.E.W.G}$PEPTIDE1,PEPTIDE1,1:R3-7:R3$$$V2.0; SMILES CC[C@H](C)[C@@H]1NC(=O)[C@H](CC(C)C)NC(=O)[C@H](Cc2ccccc2)NC(=O)[C@H](Cc2c[nH]c3ccccc23)NC(=O)[C@@H](N)CCCCNC(=O)CC[C@@H](C(=O)N[C@@H](Cc2c[nH]c3ccccc23)C(=O)NCC(=O)O)NC(=O)[C@H](CS)NC1=O) [SEQ ID NO: 173]	> 30 µM	
KWXLISAWD (HELM PEPTIDE1{K.W.[CC(C)(C)[C@H](N[*:1])C(=O)[*:2]].L.I.S.A.W.D}$PEPTIDE1,PEPTIDE1,1:R3-9:R3$$$V2.0; SMILES CC[C@H](C)[C@@H]1NC(=O)[C@H](CC(C)C)NC(=O)[C@H](C(C)(C)C)NC(=O)[C@H](Cc2c[nH]c3ccccc23)NC(=O)[C@@H](N)CCCCNC(=O)C[C@@H](C(=O)O)NC(=O)[C@H](Cc2c[nH]c3ccccc23)NC(=O)[C@H](C)NC(=O)[C@H](CO)NC1=O) [SEQ ID NO: 205]	> 30 µM	
KWFLICEWG (HELM PEPTIDE1{K.W.F.L.I.C.E.W.G}$PEPTIDE1,PEPTIDE1,1:R3-7:R3$$$V2.0; SMILES CC[C@H](C)[C@@H]1NC(=O)[C@H](CC(C)C)NC(=O)[C@H](Cc2ccccc2)NC(=O)[C@H](Cc2c[nH]c3ccccc23)NC(=O)[C@@H](N)CCCCNC(=O)CC[C@@H](C(=O)N[C@@H](Cc2c[nH]c3ccccc23)C(=O)NCC(=O)O)NC(=O)[C@H](CS)NC1=O) [SEQ ID NO: 181]	> 30 µM	
KMWFLICEWG (HELM PEPTIDE1{K.M.W.F.L.I.C.E.W.G}$PEPTIDE1,PEPTIDE1,1:R3-8:R3$$$V2.0; SMILES CC[C@H](C)[C@@H]1NC(=O)[C@H](CC(C)C)NC(=O)[C@H](Cc2ccccc2)NC(=O)[C@H](Cc2c[nH]c3ccccc23)NC(=O)[C@H](CCSC)NC(=O)[C@@H](N)CCCCNC(=O)CC[C@@H](C(=O)N[C@@H](Cc2c[nH]c3ccccc23)C(=O)NCC(=O)O)NC(=O)[C@H](CS)NC1=O) [SEQ ID NO: 180]	≤ 7.5 µM	
N3-WESILDEHVQRVW[Pra]-NH2 (triazole N-14) [SEQ ID NO: 33]	> 30 µM	
KWFLICFWEG (cyclo-H2N-K(G*)WFLICFWE*G-COOH) [SEQ ID NO: 174]	> 7.5 µM and ≤ 15 µM	
KMSRMWYLISFW (HELM PEPTIDE1{K.M.S.R.M.W.Y.L.I.S.F.W}$PEPTIDE1,PEPTIDE1,1:R3-12:R2$$$V2.0; SMILES CC[C@H](C)[C@@H]1NC(=O)[C@H](CC(C)C)NC(=O)[C@H](Cc2ccc(O)cc2)NC(=O)[C@H](Cc2c[nH]c3ccccc23)NC(=O)[C@H](CCSC)NC(=O)[C@H](CCCNC(=N)N)NC(=O)[C@H](CO)NC(=O)[C@H](CCSC)NC(=O)[C@@H](N)CCCCNC(=O)[C@H](Cc2c[nH]c3ccccc23)NC(=O)[C@H](Cc2ccccc2)NC(=O)[C@H](CO)NC1=O) [SEQ ID NO: 31]	> 30 µM	
Stearoyl-[βAla]W[NMeW]E[αMeS]ILDEH[αMeV]QRVWG-OH (SMILES CCCCCCCCCCCCCCCCCC(=O)NCCC(=O)N[C@@H](Cc1c[nH]c2ccccc12)C(=O)N(C)[C@@H](Cc1c[nH]c2ccccc12)C(=O)N[C@@H](CCC(=O)O)C(=O)N[C@@](C)(CO)C(=O)N[C@H](C(=O)N[C@@H](CC(C)C)C(=O)N[C@@H](CC(=O)O)C(=O)N[C@@H](CCC(=O)O)C(=O)N[C@@H](Cc1c[nH]cn1)C(=O)N[C@](C)(C(=O)N[C@@H](CCC(N)=O)C(=O)N[C@@H](CCCNC(=N)N)C(=O)N[C@H](C(=O)N[C@@H](Cc1c[nH]c2ccccc12)C(=O)NCC(=O)O)C(C)C)C(C)C)[C@@H](C)CC) [SEQ ID NO: 391]	≤ 7.5 µM	4.8

From US20260098059A1 (ENDOMET BIOSCIENCES, published 2026)
